± gives the uncertainty stated by the source.
Experiment: protein stability index of a GFP-peptide fusion (yeast GPS) (PSI 1-4); higher = more stable; sorted into four equal gates, so the index is relative within each strain
How it was run: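 Peptides tiling yeast proteins in 17-residue segments were fused downstream of GFP, with Cherry expressed from the same plasmid. As a pooled library in yeast, mid-log cultures grown in leucine-free medium were sorted into four equal gates by GFP/Cherry fluorescence ratio. Gate plasmids were PCR-amplified and Illumina-sequenced, and barcodes linked reads to strains. Each peptide received a protein stability index equal to the sum of each gate's read frequency times its gate number.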

Row | Sequence | protein stability index (pdr5∆) | protein stability index (san1∆) | protein stability index (doa10∆) | protein stability index (ubr1∆)
1 | NEEINKKSLEEDDEFED [SEM1] | 3.33 ± 0.11 | 2.9 ± 0.25 |  | 
2 | NEKFEIELLSLDDDSIV [SRB4] | 3.07 ± 0.093 | 2.72 ± 0.081 | 2.58 ± 0.096 | 3.1 ± 0.1
3 | NEQLTLLSKKHGQLKLS [RPN5] | 2.34 ± 0.062 | 1.83 ± 0.081 | 1.6 ± 0.066 | 2.4 ± 0.079
4 | NEWIKAQEDVPYLLPYI [QCR7] | 2.46 ± 0.078 | 2.6 ± 0.077 | 2.42 ± 0.095 | 2.5 ± 0.056
5 | NEYRLAFYQVTPEEDEE [RPL22A] | 2.61 ± 0.071 | 2.75 ± 0.073 | 2.52 ± 0.077 | 2.69 ± 0.087
6 | NFARQLLFNNDFPLLKV [RRP40] | 2.02 ± 0.049 | 2.06 ± 0.08 | 2.91 ± 0.05 | 2.12 ± 0.037
7 | NFGGGNNTTPSSTGNAN [YJL041W/NSP1] | 2.02 ± 0.055 | 1.73 ± 0.079 | 2.05 ± 0.058 | 3.06 ± 0.071
8 | NFHNSKKRMNSNQERCH [RRI1] | 2.51 ± 0.057 | 2.83 ± 0.071 | 2.51 ± 0.062 | 2.99 ± 0.07
9 | NFKDMSHVNKYGLIRGL [PRP8] | 1.47 ± 0.067 | 2.19 ± 0.13 | 2 ± 0.069 | 1.16 ± 0.032
10 | NFLQESYEVEHVIQIPL [TAF14] | 2.94 ± 0.092 | 2.55 ± 0.067 | 2.49 ± 0.094 | 2.81 ± 0.082
11 | NFPDEDDDDSRKSAPVD [SKP1] | 3.2 ± 0.047 | 3.31 ± 0.04 | 3.09 ± 0.046 | 3.27 ± 0.041
12 | NFTCNRKILNFKKDLVI [SWI1] | 2.88 ± 0.063 | 2.46 ± 0.1 | 2.66 ± 0.081 | 2.87 ± 0.075
13 | NFYLKRFISDLLWLVLI [SWI1] | 1.88 ± 0.065 | 1.86 ± 0.095 | 1.8 ± 0.054 | 1.59 ± 0.046
14 | NGAFQNSSNLSYNNTGI [RRP4] | 2.85 ± 0.053 | 2.98 ± 0.045 | 2.58 ± 0.069 | 2.84 ± 0.055
15 | NGEEDEVALFSQKAKLM [YLR335W/NUP2] | 1.16 ± 0.13 |  | 1.16 ± 0.17 | 1.17 ± 0.094
16 | NGERKFLKEKDTVAELQ [FAS2] | 3.38 ± 0.23 | 3.11 ± 0.24 |  | 3.02 ± 0.076
17 | NGNKDSSFNFNKNLPFV [SWI1] | 3.38 ± 0.068 | 3.28 ± 0.051 | 3.21 ± 0.058 | 3.31 ± 0.043
18 | NHMLIDSLNQLEIRNKI [RGR1] | 3.04 ± 0.069 | 2.92 ± 0.079 | 2.97 ± 0.097 | 3.08 ± 0.076
19 | NHNKTKLLKSLKNTKYF [PRP8] | 1.83 ± 0.052 | 1.54 ± 0.095 | 1.8 ± 0.078 | 2.15 ± 0.073
20 | NHTAHNQTRKAHRNGIK [RPL29] | 2.56 ± 0.059 | 2.32 ± 0.06 | 1.88 ± 0.047 | 2.57 ± 0.052
21 | NIDYQKGLLIWRLLFID [GRR1] | 1.28 ± 0.063 | 1.22 ± 0.2 | 1.9 ± 0.06 | 1.45 ± 0.068
22 | NIGETAGVVQDIGSDPT [RPB9] | 3.25 ± 0.085 | 2.72 ± 0.11 | 2.77 ± 0.089 | 2.92 ± 0.056
23 | NIKKKDTKDALSTRELA [RPC53] |  |  |  | 2.7 ± 0.29
24 | NILIASLMDTLITPAVR [YCG1] | 1.91 ± 0.073 | 1.58 ± 0.13 | 1.41 ± 0.063 | 1.78 ± 0.055
25 | NILLRERDSYKLLASTE [YIL149C/MLP2] | 2.53 ± 0.055 | 2.49 ± 0.063 | 2.59 ± 0.058 | 2.4 ± 0.055
26 | NILNMSMNNDFQQQQQQ [PGD1] | 3.04 ± 0.084 | 2.83 ± 0.066 | 2.68 ± 0.078 | 2.67 ± 0.071

Row | Sequence | protein stability index (pdr5∆) | protein stability index (san1∆) | protein stability index (doa10∆) | protein stability index (ubr1∆)
27 | NINATNTSVLMKLKLMI [YCS4] | 1.5 ± 0.079 | 1.48 ± 0.13 | 2.08 ± 0.093 | 2.24 ± 0.077
28 | NIQGITKPAIRRLARRG [HHF1] | 3.24 ± 0.093 | 2.89 ± 0.092 | 3.27 ± 0.1 | 3.35 ± 0.066
29 | NIQHLLYGKRFFPYYVH [PRE7] | 1.45 ± 0.037 | 1.36 ± 0.091 | 1.25 ± 0.031 | 1.3 ± 0.039
30 | NISGEFFRNKLKYHDFL [RPL16B] | 2.18 ± 0.068 | 2.22 ± 0.067 | 2.35 ± 0.063 | 1.79 ± 0.044
31 | NISIITLELESFLEGSK [RGR1] | 2.48 ± 0.059 | 2.75 ± 0.059 | 2.44 ± 0.054 | 2.94 ± 0.071
32 | NISSSQQLLPAPQLFPY [DSN1] | 2.71 ± 0.097 | 2.62 ± 0.078 | 2.44 ± 0.12 | 2.84 ± 0.086
33 | NIVHNFKERQMMVSYPK [AAR2] | 2.33 ± 0.1 | 1.9 ± 0.15 | 3.04 ± 0.13 | 2.19 ± 0.18
34 | NKDSIEECGRTIHRSFT [CSN12] | 3.13 ± 0.066 | 3.28 ± 0.043 | 3.21 ± 0.067 | 3.12 ± 0.046
35 | NKEGTLEQREQNENLPS [SSN2] | 3.06 ± 0.074 | 3.09 ± 0.057 | 3.02 ± 0.11 | 3.05 ± 0.057
36 | NKGELETQPGCNEEQTL [RPO31] | 3.38 ± 0.12 | 3.21 ± 0.2 | 3.21 ± 0.16 | 3.2 ± 0.082
37 | NKGLVVSPYDYNHKRVS [DIB1] | 2.41 ± 0.066 | 1.61 ± 0.11 | 2.39 ± 0.066 | 2.33 ± 0.087
38 | NKIKLNILKILSSLILK [SRB8] | 1.73 ± 0.074 |  | 1.79 ± 0.072 | 1.87 ± 0.053
39 | NKLFTEPIKLEPVKEYT [YMR129W/POM152] | 2.39 ± 0.06 | 2.4 ± 0.084 | 2.34 ± 0.05 | 2.4 ± 0.072
40 | NKLLGNVTIAQGGVLPN [HTA1] | 1.66 ± 0.041 | 1.72 ± 0.058 | 1.82 ± 0.053 | 1.61 ± 0.033
41 | NKLTGKQIVFEIPSETH [RPS7A] | 2.95 ± 0.091 | 2.86 ± 0.068 | 3 ± 0.09 | 2.78 ± 0.11
42 | NKLTGKQIVFEIPSQTN [RPS7B] | 3.06 ± 0.13 | 2.88 ± 0.095 | 2.79 ± 0.081 | 2.66 ± 0.086
43 | NKLVMKSKFNKSNRSYS [GAL11] | 2.99 ± 0.099 | 3.01 ± 0.064 | 2.92 ± 0.059 | 3.01 ± 0.053
44 | NKNQLLKRNRIRNARSI [POP1] | 3.1 ± 0.071 | 2.84 ± 0.059 | 2.93 ± 0.071 | 3 ± 0.055
45 | NKPAIKEDSTIQDSNGD [SWI3] | 3.05 ± 0.073 | 3.14 ± 0.06 | 2.92 ± 0.076 | 3.04 ± 0.054
46 | NKQSVSNLSPDLKFKRH [DSN1] | 2.61 ± 0.22 | 3.32 ± 0.089 | 2.95 ± 0.11 | 2.34 ± 0.2
47 | NKSFIVDQGQIYRDRST [ITC1] | 3.35 ± 0.12 | 3.32 ± 0.064 | 3.1 ± 0.11 | 3.32 ± 0.052
48 | NKTLTFETETEVTFKNA [FAS1] | 3.23 ± 0.093 | 3.28 ± 0.084 | 3.15 ± 0.078 | 3.35 ± 0.049
49 | NKVCRIEAASTTQDQCK [RPB8] | 2.89 ± 0.07 | 2.63 ± 0.075 | 2.66 ± 0.056 | 2.93 ± 0.063
50 | NKVSYYGNPTSKESWRY [RTT102] | 3.19 ± 0.13 | 2.84 ± 0.17 | 3.23 ± 0.11 | 3.42 ± 0.098
51 | NLDGTKAVKLRKSYKNQ [ROX3] | 3.36 ± 0.096 | 3.39 ± 0.067 | 3.43 ± 0.1 | 3.58 ± 0.046

— the supplement of paper PMC9732359
